Source: the Human Domainome abundance scans (Beltran et al. 2025)
± gives the uncertainty stated by the source.

Experiment: abundance fitness (aPCA) (normalised: wild type 0, dead -1); higher = more abundant; growth selection in yeast, the domain comes from the species named
Details: Homo sapiens

Substance | abundance fitness
E3 ubiquitin-protein ligase NEDD4-like L206I, Q96PU5 | -0.159 ± 0.13
E3 ubiquitin-protein ligase NEDD4-like L206K, Q96PU5 | 0.126 ± 0.11
E3 ubiquitin-protein ligase NEDD4-like L206M, Q96PU5 | -0.083 ± 0.096
E3 ubiquitin-protein ligase NEDD4-like L206N, Q96PU5 | -0.016 ± 0.11
E3 ubiquitin-protein ligase NEDD4-like L206P, Q96PU5 | -0.707 ± 0.11
E3 ubiquitin-protein ligase NEDD4-like L206Q, Q96PU5 | 0.021 ± 0.091
E3 ubiquitin-protein ligase NEDD4-like L206R, Q96PU5 | 0.04 ± 0.056
E3 ubiquitin-protein ligase NEDD4-like L206S, Q96PU5 | 0.065 ± 0.054
E3 ubiquitin-protein ligase NEDD4-like L206T, Q96PU5 | 0.011 ± 0.08
E3 ubiquitin-protein ligase NEDD4-like L206V, Q96PU5 | -0.056 ± 0.062
E3 ubiquitin-protein ligase NEDD4-like L206W, Q96PU5 | -0.034 ± 0.077
E3 ubiquitin-protein ligase NEDD4-like L226A, Q96PU5 | 0.021 ± 0.072
E3 ubiquitin-protein ligase NEDD4-like L226C, Q96PU5 | 0.063 ± 0.071
E3 ubiquitin-protein ligase NEDD4-like L226D, Q96PU5 | -0.023 ± 0.088
E3 ubiquitin-protein ligase NEDD4-like L226E, Q96PU5 | -0.203 ± 0.092
E3 ubiquitin-protein ligase NEDD4-like L226F, Q96PU5 | -0.079 ± 0.1
E3 ubiquitin-protein ligase NEDD4-like L226G, Q96PU5 | -0.117 ± 0.057
E3 ubiquitin-protein ligase NEDD4-like L226H, Q96PU5 | -0.065 ± 0.065
E3 ubiquitin-protein ligase NEDD4-like L226I, Q96PU5 | -0.186 ± 0.12
E3 ubiquitin-protein ligase NEDD4-like L226M, Q96PU5 | 0.011 ± 0.093
E3 ubiquitin-protein ligase NEDD4-like L226N, Q96PU5 | 0.01 ± 0.09
E3 ubiquitin-protein ligase NEDD4-like L226P, Q96PU5 | 0.104 ± 0.059
E3 ubiquitin-protein ligase NEDD4-like L226R, Q96PU5 | -0.007 ± 0.065
E3 ubiquitin-protein ligase NEDD4-like L226S, Q96PU5 | 0.034 ± 0.07

Substance | abundance fitness
E3 ubiquitin-protein ligase NEDD4-like L226V, Q96PU5 | -0.11 ± 0.063
E3 ubiquitin-protein ligase NEDD4-like L226W, Q96PU5 | -0.309 ± 0.069
E3 ubiquitin-protein ligase NEDD4-like L226Y, Q96PU5 | -0.043 ± 0.091
E3 ubiquitin-protein ligase NEDD4-like M227A, Q96PU5 | -0.077 ± 0.064
E3 ubiquitin-protein ligase NEDD4-like M227C, Q96PU5 | -0.05 ± 0.059
E3 ubiquitin-protein ligase NEDD4-like M227D, Q96PU5 | 0.065 ± 0.12
E3 ubiquitin-protein ligase NEDD4-like M227G, Q96PU5 | -0.039 ± 0.064
E3 ubiquitin-protein ligase NEDD4-like M227H, Q96PU5 | 0.092 ± 0.077
E3 ubiquitin-protein ligase NEDD4-like M227I, Q96PU5 | -0.135 ± 0.073
E3 ubiquitin-protein ligase NEDD4-like M227K, Q96PU5 | -0.015 ± 0.093
E3 ubiquitin-protein ligase NEDD4-like M227L, Q96PU5 | -0.027 ± 0.067
E3 ubiquitin-protein ligase NEDD4-like M227N, Q96PU5 | -0.024 ± 0.099
E3 ubiquitin-protein ligase NEDD4-like M227P, Q96PU5 | 0.145 ± 0.09
E3 ubiquitin-protein ligase NEDD4-like M227Q, Q96PU5 | -0.068 ± 0.1
E3 ubiquitin-protein ligase NEDD4-like M227R, Q96PU5 | 0.001 ± 0.054
E3 ubiquitin-protein ligase NEDD4-like M227S, Q96PU5 | 0.055 ± 0.063
E3 ubiquitin-protein ligase NEDD4-like M227T, Q96PU5 | -0.022 ± 0.089
E3 ubiquitin-protein ligase NEDD4-like M227V, Q96PU5 | -0.285 ± 0.068
E3 ubiquitin-protein ligase NEDD4-like M227W, Q96PU5 | -0.313 ± 0.07
E3 ubiquitin-protein ligase NEDD4-like M227Y, Q96PU5 | -0.184 ± 0.082
E3 ubiquitin-protein ligase NEDD4-like N205A, Q96PU5 | -0.057 ± 0.06
E3 ubiquitin-protein ligase NEDD4-like N205C, Q96PU5 | -0.142 ± 0.059
E3 ubiquitin-protein ligase NEDD4-like N205D, Q96PU5 | -0.085 ± 0.07
E3 ubiquitin-protein ligase NEDD4-like N205E, Q96PU5 | -0.105 ± 0.05
